Results reported in the supplement of paper PMC9112550, “Optimization of the antimicrobial peptide Bac7 by deep mutational scanning” (BMC Biology, 2022).

System: Escherichia coli TOP10
Assay: shrunken log2 fold change of peptide-encoding DNA abundance (4.5 h post-induction vs induction); higher = less antimicrobial activity (less host growth inhibition)
Details: time post-induction: 4.5 h; library: site-saturation at positions 5, 18, 19, 20
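Also: peptides expressed intracellularly from a pBAD plasmid library in pooled LB shake-flask culture, induced with 0.3% L-arabinose, DNA abundance read by NGS, three biological replicates, DESeq2 with apeglm shrinkage.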

RRIRHRPPRLPRPRPRPVKDPRP was tested, and the “shrunken log2 fold change” value was -0.549.

For RRIRDRPPRLPRPRPRPWNFPRP, the “shrunken log2 fold change” value was 0.0173.

RRIRMRPPRLPRPRPRPFAGPRP was tested, and the “shrunken log2 fold change” value was -0.0745.

With RRIRVRPPRLPRPRPRPMHQPRP the “shrunken log2 fold change” value was 0.02.

RRIRNRPPRLPRPRPRPIWSPRP was tested, and the “shrunken log2 fold change” value was 0.0615.

For RRIRNRPPRLPRPRPRPNHWPRP, the “shrunken log2 fold change” value was -0.125.

For RRIRCRPPRLPRPRPRPDWMPRP, the “shrunken log2 fold change” value was -0.11.

For RRIRWRPPRLPRPRPRPIGHPRP, the “shrunken log2 fold change” value was 0.0282.

RRIRIRPPRLPRPRPRPIGAPRP was tested, and the “shrunken log2 fold change” value was -0.0926.

In the case of RRIRGRPPRLPRPRPRPDCYPRP, the “shrunken log2 fold change” value was 0.191.

RRIRTRPPRLPRPRPRPFQTPRP was tested, and the “shrunken log2 fold change” value was 0.0582.

For RRIRSRPPRLPRPRPRPVHMPRP, the “shrunken log2 fold change” value was -0.322.

For RRIRWRPPRLPRPRPRPENIPRP, the “shrunken log2 fold change” value was -0.148.

RRIRQRPPRLPRPRPRPLYHPRP was tested, and the “shrunken log2 fold change” value was -0.283.

With RRIRLRPPRLPRPRPRPGTRPRP the “shrunken log2 fold change” value was 0.309.

With RRIRERPPRLPRPRPRPSTGPRP the “shrunken log2 fold change” value was -0.467.

With RRIRVRPPRLPRPRPRPVCYPRP the “shrunken log2 fold change” value was 0.0382.

RRIRLRPPRLPRPRPRPSNRPRP was tested, and the “shrunken log2 fold change” value was -0.599.

With RRIRIRPPRLPRPRPRPMWYPRP the “shrunken log2 fold change” value was -0.554.

For RRIRCRPPRLPRPRPRPWPMPRP, the “shrunken log2 fold change” value was 0.168.

For RRIRSRPPRLPRPRPRPEWAPRP, the “shrunken log2 fold change” value was 0.273.

In the case of RRIRMRPPRLPRPRPRPIGRPRP, the “shrunken log2 fold change” value was -0.00776.

RRIRARPPRLPRPRPRPMMKPRP was tested, and the “shrunken log2 fold change” value was -0.146.

With RRIRNRPPRLPRPRPRPVQCPRP the “shrunken log2 fold change” value was -0.0226.

For RRIRRRPPRLPRPRPRPMVGPRP, the “shrunken log2 fold change” value was 0.397.

RRIRTRPPRLPRPRPRPEGKPRP was tested, and the “shrunken log2 fold change” value was 0.0733.

With RRIRARPPRLPRPRPRPCWFPRP the “shrunken log2 fold change” value was 0.107.

With RRIRTRPPRLPRPRPRPKSMPRP the “shrunken log2 fold change” value was -0.62.

In the case of RRIRMRPPRLPRPRPRPAYEPRP, the “shrunken log2 fold change” value was 0.0216.

With RRIRIRPPRLPRPRPRPLCEPRP the “shrunken log2 fold change” value was -0.332.

In the case of RRIRERPPRLPRPRPRPEVTPRP, the “shrunken log2 fold change” value was -0.0794.

For RRIRPRPPRLPRPRPRPIWKPRP, the “shrunken log2 fold change” value was 0.0296.

For RRIRHRPPRLPRPRPRPVAKPRP, the “shrunken log2 fold change” value was -0.17.

RRIRSRPPRLPRPRPRPLDGPRP was tested, and the “shrunken log2 fold change” value was -0.365.

RRIRDRPPRLPRPRPRPSSFPRP was tested, and the “shrunken log2 fold change” value was -0.178.

For RRIRDRPPRLPRPRPRPMLDPRP, the “shrunken log2 fold change” value was -0.0254.

For RRIRFRPPRLPRPRPRPREDPRP, the “shrunken log2 fold change” value was 0.0505.

For RRIRIRPPRLPRPRPRPANMPRP, the “shrunken log2 fold change” value was -0.45.

In the case of RRIRERPPRLPRPRPRPRAFPRP, the “shrunken log2 fold change” value was 0.189.

For RRIRMRPPRLPRPRPRPSNFPRP, the “shrunken log2 fold change” value was -0.192.

RRIRVRPPRLPRPRPRPQPYPRP was tested, and the “shrunken log2 fold change” value was -0.486.

With RRIRLRPPRLPRPRPRPNVRPRP the “shrunken log2 fold change” value was -0.00281.

RRIRDRPPRLPRPRPRPYEGPRP was tested, and the “shrunken log2 fold change” value was 0.00106.

In the case of RRIRSRPPRLPRPRPRPTPFPRP, the “shrunken log2 fold change” value was -0.0055.

With RRIRARPPRLPRPRPRPIEYPRP the “shrunken log2 fold change” value was -0.267.

In the case of RRIRRRPPRLPRPRPRPPMTPRP, the “shrunken log2 fold change” value was 0.43.

With RRIRLRPPRLPRPRPRPQTQPRP the “shrunken log2 fold change” value was 0.0159.

RRIRNRPPRLPRPRPRPDWTPRP was tested, and the “shrunken log2 fold change” value was -0.0129.

With RRIRLRPPRLPRPRPRPECHPRP the “shrunken log2 fold change” value was 0.0679.

For RRIRIRPPRLPRPRPRPGPGPRP, the “shrunken log2 fold change” value was 0.385.

RRIRCRPPRLPRPRPRPSRAPRP was tested, and the “shrunken log2 fold change” value was 0.113.

RRIRNRPPRLPRPRPRPFSNPRP was tested, and the “shrunken log2 fold change” value was -0.214.

With RRIRHRPPRLPRPRPRPNYWPRP the “shrunken log2 fold change” value was -0.358.

With RRIRKRPPRLPRPRPRPLKLPRP the “shrunken log2 fold change” value was 0.0766.

For RRIRNRPPRLPRPRPRPNTTPRP, the “shrunken log2 fold change” value was -0.209.

With RRIRVRPPRLPRPRPRPKPVPRP the “shrunken log2 fold change” value was 0.42.

RRIRRRPPRLPRPRPRPRPFPRP was tested, and the “shrunken log2 fold change” value was 0.699.

With RRIRDRPPRLPRPRPRPLHRPRP the “shrunken log2 fold change” value was -0.375.

For RRIRLRPPRLPRPRPRPAWRPRP, the “shrunken log2 fold change” value was 0.454.

With RRIRGRPPRLPRPRPRPQQGPRP the “shrunken log2 fold change” value was 0.0431.

RRIRYRPPRLPRPRPRPERLPRP was tested, and the “shrunken log2 fold change” value was -0.00207.

With RRIRCRPPRLPRPRPRPSYNPRP the “shrunken log2 fold change” value was -0.816.

In the case of RRIRYRPPRLPRPRPRPEPMPRP, the “shrunken log2 fold change” value was -0.0988.

For RRIRERPPRLPRPRPRPLFCPRP, the “shrunken log2 fold change” value was -0.211.

With RRIRYRPPRLPRPRPRPNHQPRP the “shrunken log2 fold change” value was -0.573.

RRIRRRPPRLPRPRPRPPFKPRP was tested, and the “shrunken log2 fold change” value was 0.321.

With RRIRMRPPRLPRPRPRPMFYPRP the “shrunken log2 fold change” value was -0.127.

For RRIRDRPPRLPRPRPRPTNGPRP, the “shrunken log2 fold change” value was -0.0673.

RRIRMRPPRLPRPRPRPKLNPRP was tested, and the “shrunken log2 fold change” value was 0.851.

With RRIRPRPPRLPRPRPRPFRTPRP the “shrunken log2 fold change” value was -0.362.

With RRIRGRPPRLPRPRPRPYAPPRP the “shrunken log2 fold change” value was 0.116.

RRIRVRPPRLPRPRPRPPCLPRP was tested, and the “shrunken log2 fold change” value was -0.108.

With RRIRNRPPRLPRPRPRPNCEPRP the “shrunken log2 fold change” value was -0.185.

In the case of RRIRPRPPRLPRPRPRPCWNPRP, the “shrunken log2 fold change” value was -0.0418.

In the case of RRIRARPPRLPRPRPRPELSPRP, the “shrunken log2 fold change” value was 0.0862.

In the case of RRIRVRPPRLPRPRPRPMSQPRP, the “shrunken log2 fold change” value was -0.296.

With RRIRWRPPRLPRPRPRPRWRPRP the “shrunken log2 fold change” value was 0.552.

In the case of RRIRFRPPRLPRPRPRPQERPRP, the “shrunken log2 fold change” value was 0.0046.

For RRIRMRPPRLPRPRPRPMCEPRP, the “shrunken log2 fold change” value was 0.273.

With RRIRQRPPRLPRPRPRPAAWPRP the “shrunken log2 fold change” value was 0.245.

RRIRFRPPRLPRPRPRPAHTPRP was tested, and the “shrunken log2 fold change” value was -0.282.

RRIRVRPPRLPRPRPRPQKGPRP was tested, and the “shrunken log2 fold change” value was -0.036.

In the case of RRIRDRPPRLPRPRPRPYITPRP, the “shrunken log2 fold change” value was -0.879.

With RRIRVRPPRLPRPRPRPVLEPRP the “shrunken log2 fold change” value was -0.0482.

For RRIRMRPPRLPRPRPRPVFHPRP, the “shrunken log2 fold change” value was -0.341.

RRIRVRPPRLPRPRPRPTYEPRP was tested, and the “shrunken log2 fold change” value was -0.152.

RRIRLRPPRLPRPRPRPFFRPRP was tested, and the “shrunken log2 fold change” value was -0.0862.

RRIRIRPPRLPRPRPRPDVMPRP was tested, and the “shrunken log2 fold change” value was -0.17.

With RRIRARPPRLPRPRPRPKESPRP the “shrunken log2 fold change” value was 0.602.

For RRIRDRPPRLPRPRPRPNFGPRP, the “shrunken log2 fold change” value was 0.0243.

With RRIRCRPPRLPRPRPRPCSYPRP the “shrunken log2 fold change” value was -0.895.
